One experiment addresses J08 A.92RW020V1V2 (HIV-1). Kind of experiment: ELISA.
A further experiment has as its target T1, J08 C.97ZA012V1V2 (HIV-1).
T1 chain: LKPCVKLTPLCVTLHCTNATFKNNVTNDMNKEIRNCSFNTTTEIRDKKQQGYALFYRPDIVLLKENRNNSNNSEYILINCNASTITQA
Kind of experiment: ELISA. A general note: An ELISA detects its analyte on a solid surface through an enzyme-linked reagent.

In another experiment the target is gp70 A.92RW020V1V2 (murine leukemia virus; HIV-1). Kind of experiment: ELISA.
The next experiment has as its target J08 C.ZM109V1V2 N173D (HIV-1). In words: ELISA.
For the next experiment, the target named is J08 C.ZM109.V1V2 (HIV-1). In words: ELISA.
For experiment [1], the target named is T2, AE.A244 V1/V2 tags, natively deglycosylated (HIV-1).
T2 construct: also called AE.A244V1V2 tags Degly
In words: ELISA.

The target of experiment [2] is T3, gp70 B.CaseA2 V1/V2 (HIV-1 V1V2 on murine leukemia virus gp70).
T3 construct: also called B.gp70CaseA2 V1/V2; gp70 B.CaseAV1V2
T3 chain: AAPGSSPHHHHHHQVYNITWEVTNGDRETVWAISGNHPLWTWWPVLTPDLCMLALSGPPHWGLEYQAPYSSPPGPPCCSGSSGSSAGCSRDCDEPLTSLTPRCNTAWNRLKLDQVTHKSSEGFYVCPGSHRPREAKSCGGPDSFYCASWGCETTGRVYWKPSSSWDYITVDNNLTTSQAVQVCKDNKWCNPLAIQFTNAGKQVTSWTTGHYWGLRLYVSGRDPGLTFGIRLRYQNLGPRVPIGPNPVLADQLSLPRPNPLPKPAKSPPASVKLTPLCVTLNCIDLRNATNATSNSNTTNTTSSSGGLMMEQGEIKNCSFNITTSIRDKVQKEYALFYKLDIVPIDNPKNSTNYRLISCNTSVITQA
In words: ELISA.

For experiment [3], the target named is A.Q23 V1V2 tags (HIV-1). Kind of experiment: ELISA.
Experiment [4] concerns the target T3, gp70 B.CaseA2 V1/V2. Kind of experiment: ELISA.
In experiment [5] the target is A.Q23 V1V2 tags (HIV-1). In words: ELISA. This is another data set of the same source.
For another experiment, the target named is C.CAP206 gp140CF.12 (HIV-1). In words: ELISA.
For experiment [6], the target named is T4, AE.A244 gp120 (HIV-1).
T4 construct: also called AE.A244 gD-gp120; E.A244gDneg
In words: ELISA.

Experiment [7] has as its target T4, AE.A244 gp120.
Experiment [8] has as its target T2, AE.A244 V1/V2 tags, natively …. Kind of experiment: ELISA. The source holds these as a separate data set.
In experiment [9] the target is T4, AE.A244 gp120. Kind of experiment: ELISA. This is another data set of the same source.
The target of a further experiment is T5, AE.427299 gp120D11/Q169K (HIV-1).
T5 construct: also called AE.427299 gp120 Q169K
In words: ELISA.

The next experiment deals with T6, AE.427299 gp120D11 (HIV-1).
T6 construct: also called AE.427299 gp120 WT
In words: ELISA.

Experiment [10] deals with T7, AE.703359 gp120D11/Q169K/R170Q/Q173H (HIV-1).
T7 construct: also called AE.703359 gp120 Mut3
In words: ELISA.

The next experiment concerns the target T8, AE.A244 gp120 delta 11 (HIV-1).
T8 construct: also called E.A244gp120Δ11; AE.A244 Δ11 gp120
Kind of experiment: ELISA.

The target in another experiment is T9, AE.703359 gp120D11 (HIV-1).
T9 construct: also called AE; 703359 gp120 WT; AE.703357 (other spelling in the text)
In words: ELISA.

A further experiment deals with T10, AE.703359 gp120D11/Q169K (HIV-1).
T10 construct: also called AE.703359 gp120 Q169K
In words: ELISA.

For experiment [11], the target named is T11, AE.427299 gp120/R168K/Q169K/Y173H/A174V (HIV-1).
T11 construct: also called AE.427299 gp120 Mut4
Kind of experiment: ELISA.

The target in a further experiment is T12, AE.A244 gp120D11/K169V (HIV-1).
T12 construct: also called A244 gp120 K169V; AE.A244 gp120/K169V
In words: ELISA.

The target of experiment [12] is T13, AE.A244 gp120 D11/K169V/V172E/H173Y (HIV-1).
T13 construct: also called A244 gp120 Mut3
Kind of experiment: ELISA.

The target of experiment [13] is T14, AE.A244 gD+ gp120 (HIV-1).
T14 construct: domain: gp120; also called AE.A244 gp120gD+
Kind of experiment: ELISA.

For experiment [14], the target named is T15, AE.A244 V1/V2 Tags N156QN160Q (HIV-1).
T15 chain: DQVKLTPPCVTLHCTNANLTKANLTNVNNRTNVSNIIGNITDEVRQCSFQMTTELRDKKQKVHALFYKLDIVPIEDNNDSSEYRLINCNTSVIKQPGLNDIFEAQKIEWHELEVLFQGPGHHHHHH
In words: ELISA.

The target in another experiment is 92TH023 gp120 (HIV-1).
The target of experiment [15] is T14, AE.A244 gD+ gp120. In words: ELISA. The source holds these as a separate data set.
Another experiment has as its target AE.A244 V1V2 Tags (HIV-1).
A further experiment has as its target Env of AE.92TH023 virus (HIV-1). Kind of experiment: cell-based or functional assay.
A further experiment concerns the target Env of B.MN virus (HIV-1). Kind of experiment: cell-based or functional assay.
The next experiment deals with Env of SHIV-1157ipd3N4 (SHIV). Kind of experiment: cell-based or functional assay.
In a further experiment the target is Env of SHIV-1157ipEL-p (SHIV). In words: cell-based or functional assay.
In another experiment the target is Env of SHIV-BaL (SHIV). In words: cell-based or functional assay.
The next experiment deals with Env of SHIV SF162P3 (SHIV). Kind of experiment: cell-based or functional assay.

This note sets out measurements from US9988424 (DUKE UNIVERSITY, dated 2018).

By EC50 is commonly meant the concentration giving half of the maximal effect. A low value points to greater potency. Broadly, the IC50 is the point on the concentration scale where inhibition reaches its midpoint. A higher IC50 goes with a need for much substance. Usually Kd stands for the free concentration of one partner at which half of the binding sites on the other are occupied at equilibrium, for simple one-to-one binding. Low values mean higher affinity, high ones lower affinity. Usually koff stands for the first-order rate constant of dissociation. A low value points to slow dissociation. For orientation: kon means a measure of how fast the partners come together. A lower kon goes with slow association.

Changes are numbered by the printed parent chain. Read-outs that look alike come from different tables or passages of the source. Some results are limits rather than exact numbers.

B1: 697D (antibody, V domains shown)
VH: QVQLVQSGAEVKKPGSSVKVSCKASGGNFNTYTISWVRQAPGQGLEWMGRIIPIFGIVNPAQKFPGRVTINVDKSTNTAYMELSSLRSEDTAVYYCATSGVGLHFGYFDYWGQGTQVTVSS
VL: QSVLTQPPSVSGAPGQRVTISCTGSSSNIGAHYDVHWYQQLPGTAPKLLIYGNSNRPSGVPDRFSGSKSGTSASLAITGLQAEDEADYYCQSYDSSLSGYVFGTGTKVTVL
notes: also called mAb 697D; V2 conformational mAb 697D
In the case of B1, the half-maximal effective concentration (EC50) with J08 A.92RW020V1V2 worked out at 0.07 nM; in the experiment with J08 C.97ZA012V1V2 it was 0.06 nM; with gp70 A.92RW020V1V2, 14 nM; with J08 C.ZM109V1V2 N173D it was 0.41 nM; with J08 C.ZM109.V1V2, 3 nM; with gp70 B.CaseA2 V1/V2 [2] it was 0.08 nM. Besides, the half-maximal effective concentration (EC50) with A.Q23 V1V2 tags [3] is greater than 66.7 nM; with gp70 B.CaseA2 V1/V2 [4], 0.33 nM; with A.Q23 V1V2 tags [5], greater than 66.7 nM; in the experiment with C.CAP206 gp140CF.12, 0.1 nM; with AE.A244 gp120 [6], 0.8 nM; in [8] it was 3.6 nM. Besides, the EC50 is 0.8 nM in the experiment with AE.A244 gp120 [9]; 0.13 µg/mL in the experiment with AE.427299 gp120D11/Q169K; 0.07 µg/mL in the experiment with AE.427299 gp120D11; 0.12 µg/mL in [10]; 0.1 µg/mL with AE.A244 gp120 delta 11; 0.21 µg/mL in the experiment with AE.703359 gp120D11. The EC50 with AE.703359 gp120D11/Q169K is 0.51 µg/mL; in the experiment with AE.A244 gp120D11/K169V, 0.06 µg/mL; in [12], 0.08 µg/mL. The “fold decrease of binding against the glycosylated protein” value in experiment [1] came to 6 fold. The molecule further returned an IC50 with AE.A244 gp120 [7] of less than 10 nM. In experiment [11], the binding result is “no binding”.

B2: 697D reverted unmutated ancestor antibody (antibody, V domains shown)
VH: QVQLVQSGAEVKKPGSSVKVSCKASGGTFSSYTISWVRQAPGQGLEWMGRIIPILGIANYAQKFQGRVTITADKSTSTAYMELSSLRSEDTAVYYCATSGVGLHFGYFDYWGQGTLVTVSS
VL: B1 VL with H32G
notes: also called 697D RUA
For the molecule B2, the 50% effective concentration (EC50) with gp70 B.CaseA2 V1/V2 [2], in the experiment with A.Q23 V1V2 tags [3], in the experiment with gp70 B.CaseA2 V1/V2 [4] and with A.Q23 V1V2 tags [5] was greater than 667 nM in each case.

B3: PG16 (antibody, V domains shown)
VH: QEQLVESGGGVVQPGGSLRLSCLASGFTFHKYGMHWVRQAPGKGLEWVALISDDGMRKYHSDSMWGRVTISRDNSKNTLYLQFSSLKVEDTAMFFCAREAGGPIWHDDVKYYDFNDGYYNYHYMDVWGKGTTVTVSS
VL: QSALTQPASVSGSPGQTITISCNGTSSDVGGFDSVSWYQQSPGKAPKVMVFDVSHRPSGISNRFSGSKSGNTASLTISGLHIEDEGDYFCSSLTDRSHRIFGGGTKVTVL
notes: also called mAb PG16; bnAb PG16
On to B3, for which the results for the EC50 with AE.A244 gD+ gp120 [13], with C.CAP206 gp140CF.12 and in the experiment with AE.A244 gD+ gp120 [15] were 15 nM, 16 nM and 15 nM, respectively. Besides, the binding result in experiment [14] is given as “no binding (tested: 100 ug/ml)”. In the experiment with 92TH023 gp120, this molecule registered an IC50 of 10 to 100 nM.

B4: CH59 (antibody, V domains shown)
VH: EVQLVESGGGLVQPGRSLRLSCAASGFTFDDGAMHWVRQAPGKGLEWVSGISWNSNIIAYADSVKGRFTISRDNAKNSLYLEMNSLRVEDTALYYCAKDSPRGELPLNYWGQGTLVTVSS
VL: SYELTQPPSVSVSPGQTARITCSGDALPKNYAYWYQQKSGQAPVLVIYEDSKRPSGIPERFSGSSSGTMATLTISGAQVEDEADYYCYSTDSSGNHRVFGGGTKLTVL
notes: also called mAb CH59
For B4, the EC50 with J08 A.92RW020V1V2 was 377 nM; in the experiment with J08 C.97ZA012V1V2, 107 nM; with gp70 A.92RW020V1V2 it was 235 nM; in the experiment with J08 C.ZM109V1V2 N173D, 22 nM; with J08 C.ZM109.V1V2, 1.16 nM; with AE.A244 gD+ gp120 [13] it was 0.04 nM. Also, the EC50 with C.CAP206 gp140CF.12 is greater than 667 nM; in the experiment with AE.A244 gp120 [6] it was 0.03 nM; with AE.A244 gD+ gp120 [15], 0.04 nM; in experiment [8], 0.0015 nM; with AE.A244 gp120 [9], 0.03 nM; in experiment [10], 0.05 µg/mL. For the same molecule, the EC50 with AE.A244 gp120 delta 11 is 0.029 µg/mL; with AE.703359 gp120D11/Q169K it was 1.2 µg/mL; in [11] it was 0.03 µg/mL; in the experiment with AE.A244 gp120D11/K169V it was 0.58 µg/mL. The molecule further displayed a Kd with AE.A244 V1V2 Tags of 0.48 nM. Further, in the experiment with AE.A244 V1V2 Tags, the koff came out at 0.00011 s⁻¹. This molecule registered a kon with AE.A244 V1V2 Tags of 238000 M⁻¹ s⁻¹. Besides, the binding result is on record as “binds” in experiment [14]; “no binding” with AE.427299 gp120D11/Q169K; “no binding” with AE.427299 gp120D11; “no binding” in the experiment with AE.703359 gp120D11; “no binding” in experiment [12]. The IC50 in the experiment with 92TH023 gp120 and with AE.A244 gp120 [7] was less than 10 nM throughout. For the same molecule, the “EC50, neutralization of AE.TH023” value with Env of AE.92TH023 virus was found to be 12.1 µg/mL. The “EC50, neutralization of B.MN” value with Env of B.MN virus is greater than 50 µg/mL. Further, the “EC50, neutralization of SHIV-1157ipd3N4” value with Env of SHIV-1157ipd3N4 was greater than 50 µg/mL. Besides, the “EC50, neutralization of SHIV-1157ipEL-p” value in the experiment with Env of SHIV-1157ipEL-p came out at 24.6 µg/mL. The “EC50, neutralization of SHIV-BaL” value in the experiment with Env of SHIV-BaL was greater than 50 µg/mL. Moreover, the “EC50, neutralization of SHIV SF162P3” value with Env of SHIV SF162P3 was greater than 50 µg/mL.
